Results on two molecules are retold here after publication PMC6242907, “Molecular basis of maintaining an oxidizing environment under anaerobiosis by soluble fumarate reductase” (Nature Communications, 2018).

Experiment [1] deals with T1, Osm1 (residues 32-501), 6x His-tagged (S. cerevisiae, UniProt P21375 32-501).
T1 construct: Osm1, soluble fumarate reductase of S. cerevisiae, amino acids 32-501, cloned in pET28a (NheI/XhoI); no removal of the tag is described except by trypsin for crystallisation; A31 is an extra residue from the cloning construct; The limits of the pET28a Osm1 used in the pull-down are not repeated in the methods; also called holo-Osm1; WT Osm1; source: also in lysate of BL21(DE3) co-expressing …
Kind of experiment: SPR; Biacore T-200, CM5 chip; MBP-Ero1 immobilised by amine coupling (1500 RU); Osm1 or chimeric Osm1 injected in PBS at 6.25 to 200 µM, 30 µL/min, 25 °C; affinity (steady-state) fitting. The note with it: both partners purified. A general note: Surface plasmon resonance follows binding to a sensor surface in real time, without labels.

The target of experiment [2] is T1, Osm1 (residues 32-501), 6x His-tagged. Kind of experiment: ITC; nano-ITC; 2.5 µL injections of 1.6 mM Osm1 into 40 µM Ero1 in PBS. The note with it: both partners purified. (In general: Isothermal titration calorimetry measures the heat released or taken up as one component is titrated into another.)

T1 sequence (P21375 32-501): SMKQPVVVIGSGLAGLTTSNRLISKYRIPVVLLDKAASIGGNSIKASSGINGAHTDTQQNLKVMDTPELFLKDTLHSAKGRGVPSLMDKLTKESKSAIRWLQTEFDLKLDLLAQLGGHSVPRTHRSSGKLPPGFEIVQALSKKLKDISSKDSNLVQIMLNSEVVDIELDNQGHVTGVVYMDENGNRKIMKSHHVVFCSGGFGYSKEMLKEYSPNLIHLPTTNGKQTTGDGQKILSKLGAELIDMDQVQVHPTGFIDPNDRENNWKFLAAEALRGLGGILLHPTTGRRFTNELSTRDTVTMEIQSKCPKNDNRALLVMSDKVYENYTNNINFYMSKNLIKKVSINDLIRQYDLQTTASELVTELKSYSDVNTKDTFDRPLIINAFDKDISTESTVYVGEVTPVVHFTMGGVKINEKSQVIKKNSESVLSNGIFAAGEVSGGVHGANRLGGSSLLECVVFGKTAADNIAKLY

B1: His6-maltose-binding protein (H6-MBP)-fused Ero1 (56-424) (enzyme, yeast, UniProt Q03103 56-424, looked up)
chain: FNELNAINENIRDDLSALLKSDFFKYFRLDLYKQCSFWDANDGLCLNRACSVDVVEDWDTLPEYWQPEILGSFNNDTMKEADDSDDECKFLDQLCQTSKKPVDIEDTINYCDVNDFNGKNAVLIDLTANPERFTGYGGKQAGQIWSTIYQDNCFTIGETGESLAKDAFYRLVSGFHASIGTHLSKEYLNTKTGKWEPNLDLFMARIGNFPDRVTNMYFNYAVVAKALWKIQPYLPEFSFCDLVNKEIKNKMDNVISQLDTKIFNEDLVFANDLSLTLKDEFRSRFKNVTKIMDCVQCDRCRLWGKIQTTGYATALKILFEINDADEFTKQHIVGKLTKYELIALLQTFGRLSESIESVNMFEKMYGKRL
notes: Ero1, ER-resident flavoenzyme of yeast, residues 56-424; FAD cofactor; Uncleaved fusion (83 kDa) immobilised on the CM5 chip; a TEV site lies between H6-MBP and Ero1; The only purified MBP-Ero1 described in the methods is the H6-MBP fusion; also called MBP-Ero1; purified MBP-Ero1; source: E. coli Origami B(DE3), purified (HiTrap Ni2+, amylose)
B1: the Kd (as a rule, the equilibrium constant for the complex coming apart) in experiment [1] is ~200 µM.

B2: Ero1 (56-424), H6-MBP cleaved off (enzyme, yeast, UniProt Q03103 56-424, looked up)
chain: B1 chain
notes: Ero1, ER-resident flavoenzyme of yeast, residues 56-424; FAD cofactor; The ITC methods name only 'Ero1'; also called recombinant Ero1; source: E. coli Origami B(DE3), purified (HiTrap Ni2+, amylose, TEV cleavage, Ni2+ flow-through)
Regarding B2, the Kd in experiment [2] is ~150 µM.
